{"source": "patent US12723255B2", "about": "“Herbicide tolerance genes and methods of use thereof” (priority 2014, dated 2026)", "molecules": {"B1": {"name": "MON-HT2: engineered oxygenase protein, amino acid sequence SEQ ID NO:18 (protein)", "chain": "MHAALTPLTNKYRFIDVQPLTGVLGAEITGVDLREPLDDSTWNEILDAFHTYQVIYFPGQAITNEQHIAFSRRFGPVDPVPLLKSIEGYPEVQMIRREANESSRVIGDDWHSDSTFLDAPPAAVVMRAIEVPEYGGDTGFLSMYSAWETLSPTMQATIEGLNVVHSATKVFGSLYQATNWRFSNTSVKVMDVDAGDRETVHPLVVTHPVTGRRALYCNQVYCQKIQGMTDAESKSLLQFLYEHATKFDFTCRVRWKKDQVLVWDNLCTMHRAAPDYAGKFRYLTRTTVAGDKPSR"}}, "key": {"[1]": {"tested_on": "mRNA transcribed from the transgene cassette", "experiment": "Quantigene analysis of transgene mRNA expression in leaf samples", "details": "normalized to maize housekeeping genes, average of eight samples", "text": "Leaf samples were collected from the plants containing transgene cassettes encoding MON-HT1, MON-HT2, and MON-HT8 with and without CTP sequences to determine expression of the mRNA transcribed from the transgene cassette encoding the engineered proteins. Quantigene® analysis was done on the leaf sample extracts to determine mRNA expression of the transgene cassette. For these assays, the probe was to the common 3′-UTR sequence present in each expression cassette used to generate the transgenic plants. Relative expression was calculated by normalizing to maize housekeeping genes. A leaf sample was collected from each of eight plants for each construct configuration used to make the transgenic plants, and the reported relative mRNA expression data is an average of the eight samples with standard error."}, "[2]": {"assay_type": "biochemical", "in_short": "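Quizalofop-P or 2,4-D was the substrate. All components were pre-heated 5 min at the test temperature, and the reaction was held there throughout. Activity was normalized to 25 °C readings (wild-type enzyme at 25 °C for the in-depth set), and T1/2 is the temperature giving half-maximal activity.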"}, "transgenic maize plants": {"tested_on": "transgenic maize plants", "experiment": "trait efficacy field trials with homozygous inbred plants, CTP evaluation", "assay_type": "in vivo", "details": "crop injury percentage", "text": "To evaluate different chloroplast targeting peptides (CTP), plant transformation vectors were constructed, each comprising a recombinant DNA molecule optimized for monocot expression and encoding MON-HTI (SEQ ID NO: 16), MON-HT2 (SEQ ID NO:20), and MON-HT8 (SEQ ID NO:39), MON-HT9 (SEQ ID NO:42), or MON-HT10 (SEQ ID NO:45). The vectors were created using the same combination of promoter, leader, intron, and 3′-UTR, but with one of three separate CTPs (A, B, or C) or without a CTP operably linked to the protein-coding sequence. The DNA constructs were used to transform immature maize (LH244) embryos using Agrobacterium tumifaciens and standard methods known in the art. Regenerated RO transgenic plantlets were grown in the green house. The R0 plants were selfed to generate R1 homozygous seed. The R0 plants were also used as the male to cross with inbred plants containing maize event MON89034 to generate segregating F1 hybrid seed for trait efficacy field trials.\nSeparate trait efficacy field trials for quizalofop-P and 2,4-D were conducted at two locations each with the homozygous inbred transgenic plants (R2 or R4 generation). In these field trials, one of two herbicide treatments was used: (1) quizalofop-P (Assure II) at 0.16 lb ai/acre (2×) plus 0.25% v/v non-ionic surfactant (NIS) applied at V4 growth stage followed by the same at V8 growth stage; or (2) 2,4-D amine at 2 lb ae/acre (2×) plus 0.25% v/v non-ionic surfactant (NIS) applied to V4 followed by V8. Injury ratings (crop injury percentage at V4 (CIPV4) or V8 (CIPV8)) were taken 10 to 14 days after the V4 and V8 applications. Error was calculated using LSD (0.05)."}, "F1 hybrid maize plants": {"tested_on": "F1 hybrid maize plants", "experiment": "trait efficacy field trial, quizalofop-P pressure screening, F1 hybrid", "assay_type": "in vivo", "details": "crop injury percentage; for 4X Qizalofop-P CIPV4 / 4X Qizalofop-P CIPV8: 0.32 lb ai/acre at VE-V2, V4, V8; for 8X Qizalofop-P CIPV4 / 8X Qizalofop-P CIPV8: 0.64 lb ai/acre at VE-V2, V4, V8; for 16X Qizalofop-P CIPV4 / 16X Qizalofop-P CIPV8: 1.28 lb ai/acre at VE-V2, V4, V8", "experimental": "Separate trait efficacy field trials for quizalofop-P and 2,4-D pressure screening were conducted at one location each with F1 hybrid transgenic plants produced by crossing an inbred plant containing maize event MON89034 with an R1 plant containing MON-HT1, MON-HT2, MON-HT8, MON-HT9, and MON-HT10 with and without operably linked CTP sequences. Transgenic F1 hybrid plants containing maize events NK603×MON89034 were used for comparison as a control.\nIn the trait efficacy field trial for quizalofop-P tolerance, one of three herbicide treatments was used: (1) quizalofop-P (Assure II) at 0.32 lb ai/acre (4×) plus 0.25% v/v non-ionic surfactant (NIS) applied at VE-V2 growth stage followed by the same at V4 growth stage followed by the same at V8 growth stage; (2) quizalofop-P at 0.64 lb ai/acre (8×) plus 0.25% v/v NIS applied at VE-V2 growth stage followed by the same at V4 growth stage followed by the same at V8 growth stage; or (3) quizalofop-P at 1.28 lb ai/acre (16×) plus 0.25% v/v NIS applied at VE-V2 growth stage followed by the same at V4 growth stage followed by the same at V8 growth stage. Plots were visually rated as above. […] The injury rating for the control plants after all quizalofop-P application was 100%. Error was calculated using LSD (0.05)."}, "[3]": {"details": "CTP B, 0.16 lb ai/acre at V4, V8"}, "[4]": {"details": "CTP C, 0.16 lb ai/acre at V4, V8"}, "[5]": {"details": "no CTP, 0.16 lb ai/acre at V4, V8"}}, "data": [{"molecule": "B1", "values": [{"measurement": "Relative Expression", "setting": "[1]; CTP A", "value": 6.96}, {"measurement": "Relative Expression", "setting": "[1]; CTP B", "value": 6.16}, {"measurement": "Relative Expression", "setting": "[1]; CTP C", "value": 4.11}, {"measurement": "Relative Expression", "setting": "[1]; no CTP", "value": 4.66}, {"measurement": "T1/2, temperature at which the enzyme activity was half of maximum", "setting": "[2]", "value": 46, "unit": "°C"}, {"measurement": "temperature sensitivity compared with the wild-type enzyme", "setting": "[2]; substrate 2,4-D, lower T1/2 than wild-type", "value": "slightly more temperature sensitive"}, {"measurement": "2X Quizalofop-P CIPV4", "setting": "transgenic maize plants; CTP A, 0.16 lb ai/acre at V4, V8, LSD (0.05) = 1.45", "value": 0}, {"measurement": "2X Quizalofop-P CIPV8", "setting": "transgenic maize plants; CTP A, 0.16 lb ai/acre at V4, V8, LSD (0.05) = 2.2", "value": 1.875}, {"measurement": "2X 2,4-D CIPV4", "setting": "transgenic maize plants; CTP A, 2 lb ae/acre at V4, V8, LSD (0.05) = 0.95", "value": 0.875}, {"measurement": "2X 2,4-D CIPV8", "setting": "transgenic maize plants; CTP A, 2 lb ae/acre at V4, V8, LSD (0.05) = 1.6", "value": 1.25}, {"measurement": "2X Quizalofop-P CIPV4", "setting": "transgenic maize plants; [3]", "value": 0}, {"measurement": "2X Quizalofop-P CIPV8", "setting": "transgenic maize plants; [3]", "value": 0}, {"measurement": "2X 2,4-D CIPV4", "setting": "transgenic maize plants; CTP B, 2 lb ae/acre at V4, V8", "value": 0}, {"measurement": "2X 2,4-D CIPV8", "setting": "transgenic maize plants; CTP B, 2 lb ae/acre at V4, V8", "value": 2.5}, {"measurement": "2X Quizalofop-P CIPV4", "setting": "transgenic maize plants; [4]", "value": 0}, {"measurement": "2X Quizalofop-P CIPV8", "setting": "transgenic maize plants; [4]", "value": 2}, {"measurement": "2X 2,4-D CIPV4", "setting": "transgenic maize plants; CTP C, 2 lb ae/acre at V4, V8", "value": 0}, {"measurement": "2X 2,4-D CIPV8", "setting": "transgenic maize plants; CTP C, 2 lb ae/acre at V4, V8", "value": 1.25}, {"measurement": "2X Quizalofop-P CIPV4", "setting": "transgenic maize plants; [5]", "value": 1.25}, {"measurement": "2X Quizalofop-P CIPV8", "setting": "transgenic maize plants; [5]", "value": 3.5}, {"measurement": "2X 2,4-D CIPV4", "setting": "transgenic maize plants; no CTP, 2 lb ae/acre at V4, V8", "value": 0}, {"measurement": "2X 2,4-D CIPV8", "setting": "transgenic maize plants; no CTP, 2 lb ae/acre at V4, V8", "value": 2.5}, {"measurement": "4X Qizalofop-P CIPV4", "setting": "F1 hybrid maize plants; CTP A", "value": 0}, {"measurement": "4X Qizalofop-P CIPV8", "setting": "F1 hybrid maize plants; CTP A", "value": 5}, {"measurement": "8X Qizalofop-P CIPV4", "setting": "F1 hybrid maize plants; CTP A", "value": 2.5}, {"measurement": "8X Qizalofop-P CIPV8", "setting": "F1 hybrid maize plants; CTP A", "value": 7.5}, {"measurement": "16X Qizalofop-P CIPV4", "setting": "F1 hybrid maize plants; CTP A", "value": 5}, {"measurement": "16X Qizalofop-P CIPV8", "setting": "F1 hybrid maize plants; CTP A", "value": 15}, {"measurement": "4X Qizalofop-P CIPV4", "setting": "F1 hybrid maize plants; CTP B", "value": 0}, {"measurement": "4X Qizalofop-P CIPV8", "setting": "F1 hybrid maize plants; CTP B", "value": 5}, {"measurement": "8X Qizalofop-P CIPV4", "setting": "F1 hybrid maize plants; CTP B", "value": 0}, {"measurement": "8X Qizalofop-P CIPV8", "setting": "F1 hybrid maize plants; CTP B", "value": 10}, {"measurement": "16X Qizalofop-P CIPV4", "setting": "F1 hybrid maize plants; CTP B", "value": 0}, {"measurement": "16X Qizalofop-P CIPV8", "setting": "F1 hybrid maize plants; CTP B", "value": 20}, {"measurement": "4X Qizalofop-P CIPV4", "setting": "F1 hybrid maize plants; CTP C", "value": 0}, {"measurement": "4X Qizalofop-P CIPV8", "setting": "F1 hybrid maize plants; CTP C", "value": 5}, {"measurement": "8X Qizalofop-P CIPV4", "setting": "F1 hybrid maize plants; CTP C", "value": 5}, {"measurement": "8X Qizalofop-P CIPV8", "setting": "F1 hybrid maize plants; CTP C", "value": 12.5}, {"measurement": "16X Qizalofop-P CIPV4", "setting": "F1 hybrid maize plants; CTP C", "value": 12.5}, {"measurement": "16X Qizalofop-P CIPV8", "setting": "F1 hybrid maize plants; CTP C", "value": 20}, {"measurement": "4X Qizalofop-P CIPV4", "setting": "F1 hybrid maize plants; no CTP", "value": 35}, {"measurement": "4X Qizalofop-P CIPV8", "setting": "F1 hybrid maize plants; no CTP", "value": 45}, {"measurement": "8X Qizalofop-P CIPV4", "setting": "F1 hybrid maize plants; no CTP", "value": 50}, {"measurement": "8X Qizalofop-P CIPV8", "setting": "F1 hybrid maize plants; no CTP", "value": 37.5}, {"measurement": "16X Qizalofop-P CIPV4", "setting": "F1 hybrid maize plants; no CTP", "value": 70}, {"measurement": "16X Qizalofop-P CIPV8", "setting": "F1 hybrid maize plants; no CTP", "value": 55}]}]}
